Common to all, as to test: cell-based or functional assay
The target in assay [1] is HIV-1 92TH021 envelope (Env) on pseudovirus (HIV-1).
Assay [2] has as its target HIV-1 IAVI-C22 envelope (Env) on pseudovirus (HIV-1).
In assay [3] the target is HIV-1 92BR020 envelope (Env) on pseudovirus (HIV-1).
For assay [4], the target named is HIV-1 MGRM-G-001 Env (pseudovirus) (HIV-1).
The target of assay [5] is HIV-1 Env of isolate MGRM-D-013 (clade D pseudovirus) (HIV-1).
Assay [6] deals with HIV-1 MGRM-AG-013 Env (pseudovirus) (HIV-1).
Assay [7] deals with HIV-1 Env of isolate MGRM-A-007 (clade A pseudovirus) (HIV-1).
Assay [8] has as its target HIV-1 Env of isolate MGRM-A-003 (clade A pseudovirus) (HIV-1).
In assay [9] the target is HIV-1 Env of isolate MGRM-D-008 (clade D pseudovirus) (HIV-1).
The target in assay [10] is HIV-1 Env of isolate APV_6, clade B (HIV-1).
The target in assay [11] is HIV-1 VLGCA1 envelope glycoprotein (Env) on pseudovirus (HIV-1 (clade A)).
Assay [12] concerns the target HIV-1 MGRM-AE-001 Env (pseudovirus) (HIV-1).
In assay [13] the target is HIV-1 envelope glycoprotein (Env) of isolate LAVI_C22 (HIV-1).
Assay [14] deals with HIV-1 MGRM-AE-002 Env (pseudovirus) (HIV-1).
The target of assay [15] is HIV-1 Env of isolate 93UG077 (clade A pseudovirus) (HIV-1).
The target in assay [16] is HIV-1 Env of isolate MGRM-D-018 (clade D pseudovirus) (HIV-1).
The target of assay [17] is HIV-1 Env of isolate MGRM-A-009 (clade A pseudovirus) (HIV-1).
Assay [18] concerns the target HIV-1 Env of isolate MGRM-D-002 (clade D pseudovirus) (HIV-1).
Assay [19] addresses HIV-1 Env of isolate 92RW020 (Clade A) (HIV-1).
For assay [20], the target named is HIV-1 Env of isolate MGRM-D-003 (clade D pseudovirus) (HIV-1).
Assay [21] addresses HIV-1 envelope glycoprotein (Env) of isolate MGRM-C-007 (HIV-1).
For assay [22], the target named is HIV-1 Env of isolate MGRM-D-022 (clade D pseudovirus) (HIV-1).
Assay [23] concerns the target HIV-1 Env of isolate MGRM-AG-005 (subtype AG) (HIV-1).
For assay [24], the target named is HIV-1 Env of isolate JRFL (HIV-1).
Assay [25] has as its target HIV-1 Env of isolate 92TH021 (subtype AE) (HIV-1).
Assay [26] concerns the target HIV-1 Env of isolate MGRM-F1-018 (HIV-1).
Assay [27] has as its target HIV-1 Env of isolate MGRM-F1-023 (HIV-1).
Assay [28] deals with HIV-1 Env of pseudovirus isolate MGRM-C-020 (clade C) (HIV-1).
Assay [29] addresses HIV-1 Env of isolate 92UG001 (pseudovirus) (HIV-1).
The target of assay [30] is HIV-1 Env of pseudovirus isolate MGRM-C-013 (clade C) (HIV-1).
In assay [31] the target is HIV-1 Env of isolate MGRM-D-029 (HIV-1).
Assay [32] deals with HIV-1 Env of isolate MGRM-F1-013 (HIV-1).
Assay [33] deals with HIV-1 Env of isolate 98CN006 (pseudovirus) (HIV-1).
For assay [34], the target named is HIV-1 Env of isolate 92UG024 (pseudovirus) (HIV-1).

Chain of 5329_C19 (PGT-136) (antibody) (VH): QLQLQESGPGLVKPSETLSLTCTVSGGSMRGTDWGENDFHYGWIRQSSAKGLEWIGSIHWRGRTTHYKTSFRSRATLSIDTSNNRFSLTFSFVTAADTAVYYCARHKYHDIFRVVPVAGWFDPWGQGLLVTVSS
Chain of 5329_C19 (PGT-136) (antibody) (VL): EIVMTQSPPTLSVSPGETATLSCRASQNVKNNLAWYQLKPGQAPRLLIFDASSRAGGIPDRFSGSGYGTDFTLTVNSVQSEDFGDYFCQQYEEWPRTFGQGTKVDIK
Chain of 5345_I01 (PGT-137) (antibody) (VH): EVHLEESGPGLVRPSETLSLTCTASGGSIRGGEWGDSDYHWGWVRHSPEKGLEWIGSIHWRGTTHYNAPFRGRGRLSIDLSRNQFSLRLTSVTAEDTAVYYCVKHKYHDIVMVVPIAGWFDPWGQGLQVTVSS
Chain of 5345_I01 (PGT-137) (antibody) (VL): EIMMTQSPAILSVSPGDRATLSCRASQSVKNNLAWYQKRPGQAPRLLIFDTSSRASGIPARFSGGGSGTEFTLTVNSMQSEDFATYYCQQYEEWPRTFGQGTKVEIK

Regarding 2F5 (antibody), the neutralization IC50 in assay [1] is 1.51 µg/mL; in assay [2], > 50 µg/mL; in [3], > 50 µg/mL. Also, the IC50 (µg/ml), pseudovirus neutralization in [4] worked out at 4.1 µg/mL; in assay [6] it was 1.79 µg/mL; in [7], 16.3 µg/mL; in assay [8], 7.37 µg/mL; in assay [10], 0.25 µg/mL; in assay [11], 3.9 µg/mL. Besides, the IC50 (µg/ml), pseudovirus neutralization in [12] is 0.29 µg/mL; in assay [13], > 50 µg/mL; in [14], 0.31 µg/mL; in assay [15] it was 3.3 µg/mL; in [17], 9.4 µg/mL; in [21], > 50 µg/mL. The IC50, pseudovirus neutralization in assay [5] is 2.12 µg/mL; in assay [9], > 50 µg/mL; in assay [16] it was 4.05 µg/mL; in [18], 24.6 µg/mL; in assay [20], > 50 µg/mL; in assay [22], 8.45 µg/mL. The substance also registered an IC90 (neutralization of pseudovirus) in assay [19] of 27.7 µg/mL.

Turning to 5345_I01 (PGT-137) (antibody), the IC50, pseudovirus neutralization in [23], in assay [25], in assay [28] and in assay [30] was > 50 µg/mL in each case. Further, the IC50 (µg/mL), pseudovirus neutralization in [24], in assay [26], in [27], in assay [29], in [31] and in assay [32] was > 50 µg/mL throughout. Further, the IC50 (µg/mL), pseudovirus neutralization in [33] worked out at 1.22 µg/mL; in [34] it was 0.106 µg/mL.

Take 5329_C19 (PGT-136) (antibody): the IC50, pseudovirus neutralization in assay [23], in assay [25], in assay [28] and in assay [30] was > 50 µg/mL in each case. The IC50 (µg/mL), pseudovirus neutralization in assay [24], in assay [26], in assay [27], in [29], in assay [31] and in assay [32] was > 50 µg/mL each time. The IC50 (µg/mL), pseudovirus neutralization is 0.406 µg/mL in assay [33] and 0.052 µg/mL in assay [34].

With 2G12 (antibody), the neutralization IC50 in assay [1] was > 50 µg/mL; in assay [2], > 50 µg/mL; in assay [3], 2.26 µg/mL. Moreover, the IC50 (µg/ml), pseudovirus neutralization in assay [4] was > 50 µg/mL; in assay [6], 0.95 µg/mL; in [7], > 50 µg/mL; in assay [8], > 50 µg/mL; in assay [10], 1.9 µg/mL; in [11], > 50 µg/mL. Moreover, the IC50 (µg/ml), pseudovirus neutralization in [12] is > 50 µg/mL; in [13] it was > 50 µg/mL; in assay [14] it was > 50 µg/mL; in assay [15] it was > 50 µg/mL; in [17], 7.47 µg/mL; in [21] it was > 50 µg/mL. Also, the IC50, pseudovirus neutralization in [5] is > 50 µg/mL; in assay [9], > 50 µg/mL; in assay [16], 0.12 µg/mL; in assay [18], > 50 µg/mL; in [20], > 50 µg/mL; in assay [22] it was > 50 µg/mL. In assay [19], this substance returned an IC90 (neutralization of pseudovirus) of 6.23 µg/mL.

Source of the values: patent US20240132578A1.
